In US20230059341A1 (TESARO, published 2023):
Where two headings read alike, the source gives them in different places.

How the values were obtained:
[1] = biological target: T1, human PD-1 on PD-1 effector cells (Jurkat T cells, Promega #J1155) (human, UniProt Q15116 25-288); test: cell-based or functional assay
[2] = biological target: T2, Neonatal Fc Receptor (FcRn) (UniProt P55899 24-297; P61769 21-119, limits assumed); test: FcRn binding assay, BIACORE (SPR)
[3] = biological target: T3, PD-1 protein constitutively expressed on engineered CHO K1 cells (UniProt Q15116 25-288, limits assumed); test: MSD potency assay: competitive binding on CHO K1 cells expressing PD-1, inhibition of PD-L1-mFc binding, ECL; percent of reference material
T3 construct: whole, on cells; also called programmed cell death protein 1
Protocol: (§1) The Meso Scale Discovery (MSD) potency assay employs engineered CHO K1 cells constitutively expressing the PD-1 protein. […] The readout is measured using a specific detection antibody mixture that releases an electrochemiluminescence (ECL) signal that can be quantified.

[4] = biological target: T2, Neonatal Fc Receptor (FcRn); test: FcRn binding assay, BIACORE (SPR); remark: listed apart in the source
[5] = biological target: T3, PD-1 protein constitutively expressed …; test: MSD potency assay: competitive binding on CHO K1 cells expressing PD-1, inhibition of PD-L1-mFc binding, ECL; percent of reference material; remark: listed apart in the source
Protocol: as §1

[6] = biological target: T1, human PD-1 on PD-1 effector cells …; test: cell-based or functional assay; remark: listed apart in the source
[7] = biological target: T1, human PD-1 on PD-1 effector cells …; test: cell-based or functional assay; remark: listed apart in the source
[8] = biological target: T1, human PD-1 on PD-1 effector cells …; test: cell-based or functional assay; remark: listed apart in the source
[9] = biological target: T2, Neonatal Fc Receptor (FcRn); test: FcRn binding assay, BIACORE (SPR); remark: listed apart in the source
[10] = biological target: T3, PD-1 protein constitutively expressed …; test: MSD potency assay: competitive binding on CHO K1 cells expressing PD-1, inhibition of PD-L1-mFc binding, ECL; percent of reference material; remark: listed apart in the source
Protocol: as §1

[11] = biological target: T2, Neonatal Fc Receptor (FcRn); test: BIACORE (SPR), antibody immobilized on sensor chip, FcRn injected as analyte
Protocol: FcRn binding was assessed via BIACORE analysis. […] Various concentrations of analyte (FcRn) were injected for analysis of the association and dissociation properties.

T1 sequence (Q15116 25-288): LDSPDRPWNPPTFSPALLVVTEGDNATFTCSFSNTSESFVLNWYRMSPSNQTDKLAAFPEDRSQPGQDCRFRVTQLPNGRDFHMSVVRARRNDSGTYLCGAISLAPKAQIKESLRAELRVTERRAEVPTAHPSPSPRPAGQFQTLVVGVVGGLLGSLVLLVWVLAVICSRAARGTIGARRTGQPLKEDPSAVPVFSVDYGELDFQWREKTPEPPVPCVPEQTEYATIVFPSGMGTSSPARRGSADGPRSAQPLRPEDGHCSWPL
T3 sequence (Q15116 25-288 limits assumed, change not shown): as the sequence (Q15116 25-288) above
T2 sequence (P55899 24-297 limits assumed, chain 1 of 2): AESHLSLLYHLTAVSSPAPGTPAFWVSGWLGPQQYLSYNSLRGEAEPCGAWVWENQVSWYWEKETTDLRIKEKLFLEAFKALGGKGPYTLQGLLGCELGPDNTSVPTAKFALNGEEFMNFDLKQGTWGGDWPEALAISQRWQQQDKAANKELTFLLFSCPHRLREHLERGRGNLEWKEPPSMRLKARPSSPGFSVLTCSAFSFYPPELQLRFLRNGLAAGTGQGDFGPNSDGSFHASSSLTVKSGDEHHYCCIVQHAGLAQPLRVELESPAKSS
T2 sequence (P61769 21-119 limits assumed, chain 2 of 2): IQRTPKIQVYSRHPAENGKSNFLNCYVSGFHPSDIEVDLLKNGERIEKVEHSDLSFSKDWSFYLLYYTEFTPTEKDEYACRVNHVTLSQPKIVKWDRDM

B1: Dostarlimab, H2O2 treated, 25° C., 2 weeks (antibody, human IgG4 S228P, kappa)
heavy: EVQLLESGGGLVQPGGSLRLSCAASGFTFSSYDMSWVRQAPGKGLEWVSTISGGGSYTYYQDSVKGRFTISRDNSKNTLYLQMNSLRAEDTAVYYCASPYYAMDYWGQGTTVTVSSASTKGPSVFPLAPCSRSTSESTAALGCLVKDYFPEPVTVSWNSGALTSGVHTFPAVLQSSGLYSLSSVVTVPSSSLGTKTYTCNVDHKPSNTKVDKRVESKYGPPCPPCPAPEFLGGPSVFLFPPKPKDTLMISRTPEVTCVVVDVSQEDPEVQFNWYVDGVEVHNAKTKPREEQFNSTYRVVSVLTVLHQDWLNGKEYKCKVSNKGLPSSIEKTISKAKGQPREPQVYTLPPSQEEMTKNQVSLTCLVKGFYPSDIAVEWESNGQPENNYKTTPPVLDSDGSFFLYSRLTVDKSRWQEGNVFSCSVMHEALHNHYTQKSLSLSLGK
light: DIQLTQSPSFLSAYVGDRVTITCKASQDVGTAVAWYQQKPGKAPKLLIYWASTLHTGVPSRFSGSGSGTEFTLTISSLQPEDFATYYCQHYSSYPWTFGQGTKLEIKRTVAAPSVFIFPPSDEQLKSGTASVVCLLNNFYPREAKVQWKVDNALQSGNSQESVTEQDSKDSTYSLSSTLTLSKADYEKHKVYACEVTHQGLSSPVTKSFNRGEC
modifications: percent of population: Trp 50 oxidation 1.3; Asn 137 deamidation 1.3; percent of population: Met 34 oxidation 28.8; Met 83 oxidation 1.1; Met 103 oxidation 86.1; Met 248 oxidation 99.6; Asn 311 deamidation 7.4; Met 354 oxidation 99.8; Asn 380 deamidation 10.5; Asn 385 deamidation 1.9; Met 424 oxidation 98.1; Lys 443 clipped 97.7
notes: 0.1% (v:v) H2O2; also called H2O2, 25° C., 2 weeks
- Relative Potency, Cell-Based Bioassay [1]: 47%
- Kd [2]: 12400 nM
- Relative Potency, MSD Binding [3]: 74%

B2: Dostarlimab, AAPH treated, 40° C., 7 days (antibody, human IgG4 S228P, kappa)
heavy: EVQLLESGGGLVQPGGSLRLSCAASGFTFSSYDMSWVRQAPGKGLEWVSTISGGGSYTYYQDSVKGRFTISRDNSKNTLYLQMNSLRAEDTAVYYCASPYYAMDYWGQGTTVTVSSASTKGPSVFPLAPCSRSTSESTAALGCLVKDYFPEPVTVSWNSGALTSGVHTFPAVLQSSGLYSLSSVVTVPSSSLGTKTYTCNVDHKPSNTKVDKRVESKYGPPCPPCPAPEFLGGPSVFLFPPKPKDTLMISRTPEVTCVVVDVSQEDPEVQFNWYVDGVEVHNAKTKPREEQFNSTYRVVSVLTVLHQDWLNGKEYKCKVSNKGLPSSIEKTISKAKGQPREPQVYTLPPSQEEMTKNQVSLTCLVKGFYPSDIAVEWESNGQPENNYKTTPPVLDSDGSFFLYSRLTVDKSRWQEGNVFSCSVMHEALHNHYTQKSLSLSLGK
light: DIQLTQSPSFLSAYVGDRVTITCKASQDVGTAVAWYQQKPGKAPKLLIYWASTLHTGVPSRFSGSGSGTEFTLTISSLQPEDFATYYCQHYSSYPWTFGQGTKLEIKRTVAAPSVFIFPPSDEQLKSGTASVVCLLNNFYPREAKVQWKVDNALQSGNSQESVTEQDSKDSTYSLSSTLTLSKADYEKHKVYACEVTHQGLSSPVTKSFNRGEC
modifications: PTM levels of this sample are not tabulated
notes: 5 mM AAPH; HMW 18.7%; also called AAPH, 40° C., 7 days
- Kd [4]: 9690 nM
- Relative Potency, MSD Binding [5]: 43%

B3: Dostarlimab, AAPH treated, 40° C., 1 day (antibody, human IgG4 S228P, kappa)
heavy: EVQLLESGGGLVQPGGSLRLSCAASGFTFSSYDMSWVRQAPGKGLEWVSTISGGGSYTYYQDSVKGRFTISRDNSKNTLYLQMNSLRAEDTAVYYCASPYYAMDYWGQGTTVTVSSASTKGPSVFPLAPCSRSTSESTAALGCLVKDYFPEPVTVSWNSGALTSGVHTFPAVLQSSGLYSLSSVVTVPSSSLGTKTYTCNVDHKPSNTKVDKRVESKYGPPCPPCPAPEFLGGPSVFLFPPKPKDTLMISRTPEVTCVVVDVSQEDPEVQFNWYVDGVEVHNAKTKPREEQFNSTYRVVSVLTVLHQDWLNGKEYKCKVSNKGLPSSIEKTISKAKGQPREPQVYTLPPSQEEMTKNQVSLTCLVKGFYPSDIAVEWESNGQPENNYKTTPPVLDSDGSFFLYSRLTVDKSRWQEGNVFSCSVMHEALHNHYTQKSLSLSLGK
light: DIQLTQSPSFLSAYVGDRVTITCKASQDVGTAVAWYQQKPGKAPKLLIYWASTLHTGVPSRFSGSGSGTEFTLTISSLQPEDFATYYCQHYSSYPWTFGQGTKLEIKRTVAAPSVFIFPPSDEQLKSGTASVVCLLNNFYPREAKVQWKVDNALQSGNSQESVTEQDSKDSTYSLSSTLTLSKADYEKHKVYACEVTHQGLSSPVTKSFNRGEC
modifications: percent of population: Trp 50 oxidation 38.9; Asn 137 deamidation 1.2; percent of population: Met 103 oxidation 2.5; Met 248 oxidation 47.7; Asn 311 deamidation 6.5; Met 354 oxidation 8.2; Asn 380 deamidation 8.6; Asn 385 deamidation 1.3; Met 424 oxidation 26.2; Asn 430 deamidation 1.1; Lys 443 clipped 96.7
notes: 5 mM AAPH; HMW 4.9%; also called AAPH, 40° C., 1 day; AAPH Day 1
- Relative Potency, Cell-Based Bioassay [6]: 44%
- Kd [4]: 2340 nM
- Relative Potency, MSD Binding [5]: 76%

B4: Dostarlimab, thermally degraded, 50° C., 3 weeks (antibody, human IgG4 S228P, kappa)
heavy: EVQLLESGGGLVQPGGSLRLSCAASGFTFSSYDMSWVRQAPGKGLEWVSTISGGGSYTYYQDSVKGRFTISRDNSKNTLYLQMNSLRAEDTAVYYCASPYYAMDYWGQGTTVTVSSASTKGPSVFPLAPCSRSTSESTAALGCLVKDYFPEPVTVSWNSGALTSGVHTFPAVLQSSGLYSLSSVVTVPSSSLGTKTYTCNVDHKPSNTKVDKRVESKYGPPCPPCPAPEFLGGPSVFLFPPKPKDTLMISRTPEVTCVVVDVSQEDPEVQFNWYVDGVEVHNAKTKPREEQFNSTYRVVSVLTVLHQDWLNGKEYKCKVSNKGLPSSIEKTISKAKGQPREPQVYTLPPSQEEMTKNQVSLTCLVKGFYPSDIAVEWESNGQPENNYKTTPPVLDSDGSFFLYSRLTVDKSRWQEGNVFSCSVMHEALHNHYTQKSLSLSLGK
light: DIQLTQSPSFLSAYVGDRVTITCKASQDVGTAVAWYQQKPGKAPKLLIYWASTLHTGVPSRFSGSGSGTEFTLTISSLQPEDFATYYCQHYSSYPWTFGQGTKLEIKRTVAAPSVFIFPPSDEQLKSGTASVVCLLNNFYPREAKVQWKVDNALQSGNSQESVTEQDSKDSTYSLSSTLTLSKADYEKHKVYACEVTHQGLSSPVTKSFNRGEC
modifications: percent of population: Asp 151/167 isomerization 2.5; percent of population: Met 248 oxidation 7.6; Asp 261/266/276 isomerization 13.1; Asn 311 deamidation 7.4; Met 354 oxidation 4.2; Asn 380 deamidation 14.7; Asn 385 deamidation 5.9; Asp 395/397/409 isomerization 2.2; Met 424 oxidation 3.5; Asn 430 deamidation 2.0; Lys 443 clipped 97.8
notes: Mixture; HMW 11.2%, acidic peaks 59.1%; also called Thermal Degradation
- Relative Potency, Cell-Based Bioassay [7]: 86%
- Relative Potency (Potency by cell-based bioassay) [8]: 86%
- Kd [9]: 2290 nM
- Relative Potency, MSD Binding [10]: 76%

B5: Dostarlimab, AAPH treated, 40° C., 3 days (antibody, human IgG4 S228P, kappa)
heavy: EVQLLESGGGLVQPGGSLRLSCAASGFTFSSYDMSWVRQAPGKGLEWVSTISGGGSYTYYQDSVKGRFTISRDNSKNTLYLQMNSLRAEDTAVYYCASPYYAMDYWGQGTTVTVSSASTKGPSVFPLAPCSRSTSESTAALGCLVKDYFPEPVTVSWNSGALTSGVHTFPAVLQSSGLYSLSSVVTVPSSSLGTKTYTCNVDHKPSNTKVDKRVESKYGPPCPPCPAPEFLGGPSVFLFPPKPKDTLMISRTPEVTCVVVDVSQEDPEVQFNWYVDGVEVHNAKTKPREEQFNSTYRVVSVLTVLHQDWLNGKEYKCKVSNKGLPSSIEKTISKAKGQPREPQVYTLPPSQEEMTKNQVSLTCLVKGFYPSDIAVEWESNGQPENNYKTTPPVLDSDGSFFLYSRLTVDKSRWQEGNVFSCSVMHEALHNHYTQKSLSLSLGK
light: DIQLTQSPSFLSAYVGDRVTITCKASQDVGTAVAWYQQKPGKAPKLLIYWASTLHTGVPSRFSGSGSGTEFTLTISSLQPEDFATYYCQHYSSYPWTFGQGTKLEIKRTVAAPSVFIFPPSDEQLKSGTASVVCLLNNFYPREAKVQWKVDNALQSGNSQESVTEQDSKDSTYSLSSTLTLSKADYEKHKVYACEVTHQGLSSPVTKSFNRGEC
modifications: percent of population: Trp 50 oxidation 74.2; percent of population: Met 103 oxidation 7.0; Met 248 oxidation 88.4; Asp 261/266/276 isomerization 1.0; Asn 311 deamidation 6.6; Met 354 oxidation 44.8; Asn 380 deamidation 9.6; Asn 385 deamidation 1.2; Met 424 oxidation 78.2; Lys 443 clipped 97.7
notes: 5 mM AAPH; HMW 11.8%; also called AAPH, 40° C., 3 days
- Relative Potency, Cell-Based Bioassay [6]: 14%
- Kd [4]: 8330 nM
- Relative Potency, MSD Binding [5]: 57%

B6: Dostarlimab (antibody, human IgG4 S228P, kappa)
heavy: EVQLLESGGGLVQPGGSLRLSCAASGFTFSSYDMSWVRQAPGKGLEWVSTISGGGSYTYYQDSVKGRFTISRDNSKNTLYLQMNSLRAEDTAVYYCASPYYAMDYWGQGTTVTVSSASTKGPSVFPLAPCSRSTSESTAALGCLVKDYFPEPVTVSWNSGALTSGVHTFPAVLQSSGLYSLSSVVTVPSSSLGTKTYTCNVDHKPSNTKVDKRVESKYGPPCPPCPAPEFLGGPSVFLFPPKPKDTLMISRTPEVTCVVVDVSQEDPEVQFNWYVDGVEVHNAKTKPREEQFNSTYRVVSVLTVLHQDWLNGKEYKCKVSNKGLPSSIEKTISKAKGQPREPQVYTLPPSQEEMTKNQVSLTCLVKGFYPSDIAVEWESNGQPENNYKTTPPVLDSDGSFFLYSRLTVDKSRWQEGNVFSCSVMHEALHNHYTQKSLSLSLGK
light: DIQLTQSPSFLSAYVGDRVTITCKASQDVGTAVAWYQQKPGKAPKLLIYWASTLHTGVPSRFSGSGSGTEFTLTISSLQPEDFATYYCQHYSSYPWTFGQGTKLEIKRTVAAPSVFIFPPSDEQLKSGTASVVCLLNNFYPREAKVQWKVDNALQSGNSQESVTEQDSKDSTYSLSSTLTLSKADYEKHKVYACEVTHQGLSSPVTKSFNRGEC
modifications: N-glycan at Asn 293 (99% occupancy)
notes: also called dostarlimab drug substance (DS); anti-PD-1 antibody
- Kd [11]: 1750 nM

B7: Dostarlimab, thermally degraded, 40° C., 3 weeks (antibody, human IgG4 S228P, kappa)
heavy: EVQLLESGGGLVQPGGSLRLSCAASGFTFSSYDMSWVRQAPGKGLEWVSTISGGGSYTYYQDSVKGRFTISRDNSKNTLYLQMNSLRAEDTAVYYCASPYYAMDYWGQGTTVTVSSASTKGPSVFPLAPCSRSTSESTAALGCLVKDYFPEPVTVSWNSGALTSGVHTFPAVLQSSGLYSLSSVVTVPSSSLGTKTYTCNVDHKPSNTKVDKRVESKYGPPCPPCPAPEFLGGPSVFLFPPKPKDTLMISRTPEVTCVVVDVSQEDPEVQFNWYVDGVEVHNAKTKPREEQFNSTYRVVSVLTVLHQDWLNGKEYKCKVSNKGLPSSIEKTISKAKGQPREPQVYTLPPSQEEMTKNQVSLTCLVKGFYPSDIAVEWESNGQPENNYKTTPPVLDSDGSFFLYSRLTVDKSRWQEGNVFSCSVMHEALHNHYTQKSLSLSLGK
light: DIQLTQSPSFLSAYVGDRVTITCKASQDVGTAVAWYQQKPGKAPKLLIYWASTLHTGVPSRFSGSGSGTEFTLTISSLQPEDFATYYCQHYSSYPWTFGQGTKLEIKRTVAAPSVFIFPPSDEQLKSGTASVVCLLNNFYPREAKVQWKVDNALQSGNSQESVTEQDSKDSTYSLSSTLTLSKADYEKHKVYACEVTHQGLSSPVTKSFNRGEC
modifications: percent of population: Asp 151/167 isomerization 1.1; percent of population: Met 248 oxidation 5.4; Asp 261/266/276 isomerization 2.8; Asn 311 deamidation 6.5; Met 354 oxidation 1.9; Asn 380 deamidation 10.0; Asn 385 deamidation 2.1; Met 424 oxidation 1.7; Asn 430 deamidation 1.2; Lys 443 clipped 97.8
notes: Mixture; HMW 1.4%, acidic peaks 33.8%
- Relative Potency, Cell-Based Bioassay [7]: 94%
- Kd [9]: 2250 nM
- Relative Potency, MSD Binding [10]: 88%
